Data as given in US20200024322A1 (Eli Lilly, published 2020).
Numbered stars: 1 amine (or outer) side, 2 acyl side, 3 side chain; on linkers, the order of the positions; unused ones are H or OH. Square brackets hold non-standard residues; d marks the D form. Side chains are listed from the residue outwards. Ends that are not written are not given here. * marks the point of attachment. C20 diacid = O=C(O)CCCCCCCCCCCCCCCCCCC(=O)*; γGlu = O=C(O)[C@H](CCC(=O)[*:2])N[*:1]; Desaminotyrosyl = O=C(CCc1ccc(O)cc1)*; αMeF = C[C@](N)(Cc1ccccc1)C(=O)O; αMeL = CC(C)C[C@](C)(N)C(=O)O; AEEA = NCCOCCOCC(=O)O; Aib = CC(C)(N)C(=O)O

Key:
human GLP-1 receptor = target: T1, human GLP-1 receptor (human, UniProt P43220 24-463); experiment: SPA, [125I]-GLP-1 displacement, hGLP-1R membranes
T1 construct: whole, on cells; Used as crude membranes of stably transfected HEK293 cells; also called hGLP1R; hGLP-1R

human GIP receptor = target: T2, human GIP receptor (human, UniProt P48546 22-466); experiment: SPA, [125I]-GIP displacement, hGIPR membranes
T2 construct: whole, on cells; Used as crude membranes of stably transfected CHO cells; also called hGIPR
T2 sequence (looked up): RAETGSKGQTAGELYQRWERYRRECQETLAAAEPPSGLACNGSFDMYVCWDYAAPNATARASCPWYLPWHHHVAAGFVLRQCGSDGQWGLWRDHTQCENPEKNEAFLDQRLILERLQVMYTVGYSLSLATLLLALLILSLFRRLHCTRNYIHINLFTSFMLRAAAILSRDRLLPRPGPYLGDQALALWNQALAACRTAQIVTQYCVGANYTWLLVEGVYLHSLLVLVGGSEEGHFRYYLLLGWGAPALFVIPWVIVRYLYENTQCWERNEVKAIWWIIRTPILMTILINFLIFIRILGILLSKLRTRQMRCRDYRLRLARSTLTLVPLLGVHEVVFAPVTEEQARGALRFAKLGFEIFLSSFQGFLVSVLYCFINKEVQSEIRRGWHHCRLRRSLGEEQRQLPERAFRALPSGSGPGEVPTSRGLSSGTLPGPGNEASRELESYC

human glucagon receptor = target: T3, human glucagon receptor (human, UniProt P47871 26-477); experiment: SPA, [125I]-Gcg displacement, hGcgR membranes
T3 construct: whole, on cells; Used as crude membranes of stably transfected HEK293 cells; also called hGcgR; hGLcgR
T3 sequence (P47871 26-477): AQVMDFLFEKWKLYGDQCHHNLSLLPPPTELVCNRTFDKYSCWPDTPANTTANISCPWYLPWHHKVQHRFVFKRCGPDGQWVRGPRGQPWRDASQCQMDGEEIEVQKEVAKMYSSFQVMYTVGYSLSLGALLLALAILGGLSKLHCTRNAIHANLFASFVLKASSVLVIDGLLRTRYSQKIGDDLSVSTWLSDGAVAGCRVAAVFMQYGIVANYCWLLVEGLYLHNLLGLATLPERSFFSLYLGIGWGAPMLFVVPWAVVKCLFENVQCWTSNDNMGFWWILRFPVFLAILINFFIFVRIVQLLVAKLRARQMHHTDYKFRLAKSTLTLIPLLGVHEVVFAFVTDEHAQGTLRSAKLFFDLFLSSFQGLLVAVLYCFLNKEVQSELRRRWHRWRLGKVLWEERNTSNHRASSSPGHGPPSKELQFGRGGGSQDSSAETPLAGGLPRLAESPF

B1: Example 133 (peptide)
peptide: [Desaminotyrosyl][Aib]EGT[αMeF]TSDYSI[Aib]LDEK([AEEA-AEEA-γGlu-C20 diacid])AQ[Aib]AFIEYLIEGGPSSGAPPPS-NH2
SMILES: CC[C@H](C)[C@H](NC(=O)[C@H](CC(C)C)NC(=O)[C@H](Cc1ccc(O)cc1)NC(=O)[C@H](CCC(=O)O)NC(=O)[C@@H](NC(=O)[C@H](Cc1ccccc1)NC(=O)[C@H](C)NC(=O)C(C)(C)NC(=O)[C@H](CCC(N)=O)NC(=O)[C@H](C)NC(=O)[C@H](CCCCNC(=O)COCCOCCNC(=O)COCCOCCNC(=O)CC[C@H](NC(=O)CCCCCCCCCCCCCCCCCCC(=O)O)C(=O)O)NC(=O)[C@H](CCC(=O)O)NC(=O)[C@H](CC(=O)O)NC(=O)[C@H](CC(C)C)NC(=O)C(C)(C)NC(=O)[C@@H](NC(=O)[C@H](CO)NC(=O)[C@H](Cc1ccc(O)cc1)NC(=O)[C@H](CC(=O)O)NC(=O)[C@H](CO)NC(=O)[C@@H](NC(=O)[C@](C)(Cc1ccccc1)NC(=O)[C@@H](NC(=O)CNC(=O)[C@H](CCC(=O)O)NC(=O)C(C)(C)NC(=O)CCc1ccc(O)cc1)[C@@H](C)O)[C@@H](C)O)[C@@H](C)CC)[C@@H](C)CC)C(=O)N[C@@H](CCC(=O)O)C(=O)NCC(=O)NCC(=O)N1CCC[C@H]1C(=O)N[C@@H](CO)C(=O)N[C@@H](CO)C(=O)NCC(=O)N[C@@H](C)C(=O)N1CCC[C@H]1C(=O)N1CCC[C@H]1C(=O)N1CCC[C@H]1C(=O)N[C@@H](CO)C(N)=O
B1 was tested. Which Ki (human GLP-1 receptor) did it give?
Its Ki is 11.4 nM.

What about the Ki (human GIP receptor) of the same binder?
Its Ki is 0.157 nM.

And the Ki (human glucagon receptor)?
The Ki was 216 nM.

B2: Example 123 (peptide)
peptide: YXEGTXTSDYSIXLDKKAQXEFIEYLIEGGPSSG
modifications: Aib2; αMeF6; αMeL13; K17((2-[2-(2-Amino-ethoxy)-ethoxy]-acetyl)2-(γ-Glu)-CO-(CH2)18-CO2H); Aib20; C-terminal NH2
Which results are given for B2?
Ki (human GLP-1 receptor): 1.31 nM; Ki (human GIP receptor): 0.0469 nM; Ki (human glucagon receptor): 80.1 nM

B3: Example 124 (peptide)
peptide: YXEGTXTSDYSIXLDEKAQXEFIEYLIEGGPSSG
modifications: Aib2; αMeF6; αMeL13; K17((2-[2-(2-Amino-ethoxy)-ethoxy]-acetyl)2-(γ-Glu)-CO-(CH2)18-CO2H); Aib20; C-terminal NH2
With B3 as the binder, how does the Ki (human GLP-1 receptor) read?
Its Ki is 4.87 nM.

What about the Ki (human GIP receptor) of the same binder?
The Ki was 0.0424 nM.

And the Ki (human glucagon receptor)?
Its Ki is 41.5 nM.

B4: Example 137 (peptide)
peptide: YXEGTXTSDYSIXLDKKAQXXFIEYLIEGGPSSGAPPPS
modifications: Aib2; αMeF6; αMeL13; K17((2-[2-(2-Amino-ethoxy)-ethoxy]-acetyl)2-(γ-Glu)-CO-(CH2)18-CO2H); Aib20; Aad21; C-terminal NH2
Which results are given for B4?
Ki (human GLP-1 receptor): 1.24 nM; Ki (human GIP receptor): 0.0373 nM; Ki (human glucagon receptor): 98.1 nM

B5: Example 144 (peptide)
peptide: YXEGTXTSDYSIXLDKKAQHXFIEYLIEGGPSSGAPPPS
modifications: Aib2; αMeF6; αMeL13; K17((2-[2-(2-Amino-ethoxy)-ethoxy]-acetyl)2-(γ-Glu)-CO-(CH2)18-CO2H); Aib21; C-terminal NH2
How did the Ki (human GLP-1 receptor) turn out when B5 was run?
Its Ki is 1.78 nM.

What about the Ki (human GIP receptor) of the same binder?
The Ki was 0.0341 nM.

And the Ki (human glucagon receptor)?
The Ki was 77 nM.

B6: Example 152 (peptide)
peptide: YXEGTXTSDYSIXLDEKAQXEFIXYLIEGGPSSGAPPPS
modifications: Aib2; αMeF(2F)6; αMeL13; K17((2-[2-(2-Amino-ethoxy)-ethoxy]-acetyl)2-(γ-Glu)-CO-(CH2)18-CO2H); Aib20; Aib24; C-terminal NH2
What does the source list for B6?
Ki (human GLP-1 receptor): 48 nM; Ki (human GIP receptor): 0.117 nM; Ki (human glucagon receptor): 93.4 nM

B7: Example 143 (peptide)
peptide: YXEGTXTSDYSIXLDKKAQXXFIEYLIEGGPSSGAPPPS
modifications: Aib2; αMeF6; αMeL13; K17((2-[2-(2-Amino-ethoxy)-ethoxy]-acetyl)2-(γ-Glu)-CO-(CH2)18-CO2H); Aib20; Aib21; C-terminal NH2
B7 was tested. Which Ki (human GLP-1 receptor) did it give?
Its Ki is 1.15 nM.

What about the Ki (human GIP receptor) of the same binder?
The Ki was 0.0304 nM.

What about the Ki (human glucagon receptor) of the same binder?
The Ki was 65.5 nM.

B8: Example 147 (peptide)
peptide: YXEGTXTSDYSIXLDEKAQXEFIXYLIEGGPSSGAPPPS
modifications: Aib2; αMeF(2F)6; αMeL13; K17((2-[2-(2-Amino-ethoxy)-ethoxy]-acetyl)2-(γ-Glu)-CO-(CH2)18-CO2H); Aib20; Aad24; C-terminal NH2
With B8 as the binder, how does the Ki (human GLP-1 receptor) read?
The Ki was 4.47 nM.

What about the Ki (human GIP receptor) of the same binder?
Its Ki is 0.0981 nM.

And the Ki (human glucagon receptor)?
The Ki was 64.9 nM.

B9: Example 122 (peptide)
peptide: Y[Aib]EGT[αMeF]TSDYSI[αMeL]LDEK([AEEA-AEEA-γGlu-C20 diacid])AQQAFIEYLIE[Aib]GPSSGAPPPS-NH2
modifications: N-terminus assumed
SMILES: CC[C@H](C)[C@H](NC(=O)[C@H](Cc1ccccc1)NC(=O)[C@H](C)NC(=O)[C@H](CCC(N)=O)NC(=O)[C@H](CCC(N)=O)NC(=O)[C@H](C)NC(=O)[C@H](CCCCNC(=O)COCCOCCNC(=O)COCCOCCNC(=O)CC[C@H](NC(=O)CCCCCCCCCCCCCCCCCCC(=O)O)C(=O)O)NC(=O)[C@H](CCC(=O)O)NC(=O)[C@H](CC(=O)O)NC(=O)[C@H](CC(C)C)NC(=O)[C@](C)(CC(C)C)NC(=O)[C@@H](NC(=O)[C@H](CO)NC(=O)[C@H](Cc1ccc(O)cc1)NC(=O)[C@H](CC(=O)O)NC(=O)[C@H](CO)NC(=O)[C@@H](NC(=O)[C@](C)(Cc1ccccc1)NC(=O)[C@@H](NC(=O)CNC(=O)[C@H](CCC(=O)O)NC(=O)C(C)(C)NC(=O)[C@@H](N)Cc1ccc(O)cc1)[C@@H](C)O)[C@@H](C)O)[C@@H](C)CC)C(=O)N[C@@H](CCC(=O)O)C(=O)N[C@@H](Cc1ccc(O)cc1)C(=O)N[C@@H](CC(C)C)C(=O)N[C@H](C(=O)N[C@@H](CCC(=O)O)C(=O)NC(C)(C)C(=O)NCC(=O)N1CCC[C@H]1C(=O)N[C@@H](CO)C(=O)N[C@@H](CO)C(=O)NCC(=O)N[C@@H](C)C(=O)N1CCC[C@H]1C(=O)N1CCC[C@H]1C(=O)N1CCC[C@H]1C(=O)N[C@@H](CO)C(N)=O)[C@@H](C)CC
How did the Ki (human GLP-1 receptor) turn out when B9 was run?
Its Ki is 3.36 nM.

And the Ki (human GIP receptor)?
The Ki was 0.19 nM.

What about the Ki (human glucagon receptor) of the same binder?
Its Ki is 43.3 nM.

B10: Example 10 (peptide)
peptide: Y[Aib]EGTFTSDYSILLDSIAQ[Aib]AFIK([AEEA-AEEA-γGlu-C20 diacid])YLLA[Aib]GPSSGAPPPS-NH2
modifications: N-terminus assumed
SMILES: CC[C@H](C)[C@H](NC(=O)[C@H](CO)NC(=O)[C@H](CC(=O)O)NC(=O)[C@H](CC(C)C)NC(=O)[C@H](CC(C)C)NC(=O)[C@@H](NC(=O)[C@H](CO)NC(=O)[C@H](Cc1ccc(O)cc1)NC(=O)[C@H](CC(=O)O)NC(=O)[C@H](CO)NC(=O)[C@@H](NC(=O)[C@H](Cc1ccccc1)NC(=O)[C@@H](NC(=O)CNC(=O)[C@H](CCC(=O)O)NC(=O)C(C)(C)NC(=O)[C@@H](N)Cc1ccc(O)cc1)[C@@H](C)O)[C@@H](C)O)[C@@H](C)CC)C(=O)N[C@@H](C)C(=O)N[C@@H](CCC(N)=O)C(=O)NC(C)(C)C(=O)N[C@@H](C)C(=O)N[C@@H](Cc1ccccc1)C(=O)N[C@H](C(=O)N[C@@H](CCCCNC(=O)COCCOCCNC(=O)COCCOCCNC(=O)CC[C@H](NC(=O)CCCCCCCCCCCCCCCCCCC(=O)O)C(=O)O)C(=O)N[C@@H](Cc1ccc(O)cc1)C(=O)N[C@@H](CC(C)C)C(=O)N[C@@H](CC(C)C)C(=O)N[C@@H](C)C(=O)NC(C)(C)C(=O)NCC(=O)N1CCC[C@H]1C(=O)N[C@@H](CO)C(=O)N[C@@H](CO)C(=O)NCC(=O)N[C@@H](C)C(=O)N1CCC[C@H]1C(=O)N1CCC[C@H]1C(=O)N1CCC[C@H]1C(=O)N[C@@H](CO)C(N)=O)[C@@H](C)CC
For B10, which Ki (human GLP-1 receptor) is on record?
Its Ki is 9.33 nM.

What about the Ki (human GIP receptor) of the same binder?
The Ki was 0.109 nM.

What about the Ki (human glucagon receptor) of the same binder?
Its Ki is 226 nM.
